In publication PMC4613909 one finds percent displacement of labeled 60S by 5-fold unlabeled 60S data, which are given here for one substance.

The assay deals with Artemia salina 40S ribosomal subunit (Artemia salina). The assay can be described thus: iRIA (in vitro Ribosomes Interaction Assay, microwell solid-phase binding); 40S immobilised, labeled 60S displaced by 5-fold unlabeled 60S; room temperature, 10 minutes.

The substance “Artemia salina 60S ribosomal subunit (mature) (complex)” showed a percent displacement of labeled 60S by 5-fold unlabeled 60S of 50%.
